Data taken from the DeepSol protein solubility set.

Assay: soluble on expression in E. coli; label from the status in PepcDB or PDB records

| Sequence | soluble on expression in E. coli |
| --- | --- |
| MDLHADSLDGTRSGPGLPTSDTKASFEAHVREKFNRMVEAVDRTVEKRIDKLTKELAQKTAELLEVRAAFVQLTQKKQEVQRRERALNRQVDVAVEMIAVLRQRLTESEEELLRKEEEVVTFNHFLEAAAEKEVQGKARLQDFIENLLQRVELAEKQLEYYQSQQASGFVRDLSGHVLTDISSNRKPKCLSRGHPHSVCNHPDLKSHFHPKGRNHLKKAKDDRASMQPAKAIHEQAESSRDLCRPPKKGELLGFGRKGNIRPKMAKKKPTAIVNII | not soluble |
| MDLMSFKEKEISKKDCLELFEDTENFFDVIKLADSIRKDIVGDTVTYVVNANINFTNVCSGTCKFCAFKAEHGDPNAFFLNPDEVAKKALEARKIGATEVCIQGGLLKEIDTYFQAEILKKVKKITEPYEEIVVHAFSPMEVKSAAENAGLSVNEALKILKENGLNSMPGTAAEILNDEIRSEICPTKLKTSEWIDVVTNAHKTGIKTTCTMMYGHIEENKHLAEHLSILRKIQKETGGFTEFVPLTFLHENAPLHHMERVKSGASGMLDLKTYAISRIFFKDYIKNIQTSWVKLGTKLSQVSLNCGANDIGGTLMEESISKAAGGSYGTFMSEEKLKDMILAVGRIPKQRNTAYEIIE | not soluble |
| MDLNVKQSGIHSVALHTTYFQNRSGKVYKRAEERYLRNDLSCGLAQCGTCKDFGTNPLLKIENPVRNAKVGRHALIVDSTSLIRFYDLFDSSLLRDLIVTQTVWEGVKAKAVPAYKKMNSLCYEDAKDRFHVFMNEFHCETFSESSKFEDLSRGEELLLSTALYLKTHWQKHNVAPVVLVFDEDSKKRMENHYQHVMYLKEYIQNLEDPGKQALLDQMAAYESSGNGNEKQIFDEYLSHDRIMEGIASGTIKRGNFSVSRENYREATVIIDDQLTSWFITGNNCNRAVNGDTVAVQLLPEDQWTAPEKKIRLRDVEEYVKTADDMGNEDEENDDENDEPKAKKSKKMTVSTAKVVGIIKRNWREYCGMLLPSTVKGARRHLFCPAERLIPRIRIETEQAETLSQQRIVVAIDHWPRDSKYPLGHYVRSIGEMGSRETENEVLLLEHDIPHAPFSESVLDCLPREEWEPDLTENRGPLPRVDLRDLTICSVDPLGCTDIDDALHCKQIGEDLFEVGVHIADVTHFVRPGTAIDDEAALRGTTVYLCDRRIDMLPCLLSSNLCSLRGEEERYAFSCIWTMTSSADIQSVKYHKSLIKSKAALTYEKAQEIIDDPKEQNDVALGLRGLMKLSKVLNARRTGNGALTLASSEVRFDMDWESRTPKKVMEKQHLDTHSMVEEFMLLANISVAEKILEEYPDCALLRRHPVPLKESYKPLVEAARHRGFEIIVESGKGLADSLNRCVDKKNPMLNRLLRMLTTRCMTQAVYFSAGKDGFSDIKLEEKKFFVLKTLNLPYRSCLCDDTETSIHLSRGLNDYFLFKKEKLHMSVGVLFKLFDCLGTVPVPQYQHFGLACAIYTHFTSPIRRYADVIVHRLLAAAIGADDIQSGLLNQARCTKICTNINYRHKQAQYAGRASVQLNVVRYFKGKVETCEGFVMGVRNNGIQVFVPKYGLESIIVLQTSAASGTTIDVEEMSVKVNGDVVIKELEPVTVRISVNEKNQQRPRVELQLIKPAIPGLSVDFDLSSSEGLGL | not soluble |
| MDLRTANVTRYILPLREGGSLPALAEADDEFKYVVKFRGAGHGTKALIAELIGGEIARTLGFRVPEIIFLNLDEAFGRTEADEEIQDLLQWSRGLNIGLHFLSGALTFDPVVHQVDGKTASQIVWMDAFLTNVDRTIKNTNMLMWHKELWLIDHGASLYFQHSWTNWQKQALTPFVQIKDHVLLPFADQLKETDMAFRQLLTSDKIWEIVNTVPDDWLNWTEGQETPQDLRDIYIQFLEERIKHSELFVNEAQHARKALI | not soluble |
| MDLSRINTWKSKQLKSFLSSKDAFKADINGHSVLYYAIADNNVRLVCTLLNAGALKNLLDNEFPLHQAATLEDTKIVKILLFSGMDDSQFDDKGNTALYYAVDSGNMQTVKLFVKKNWRLMFYGKTGWKTSFYHAVMLNDVSIVSYFLSEIPSPFDLAILLSCIHTTIKNGHVDMMILLLDYMTSTNTNSLLFIPDIKLAIDNKDIEMLQALFKYDINIYSVNLENVLLDDAEIAKMIIEKHVEYKSDSYTKDLDDVKNNKLDEIISKNEELRLMYVNYVRKNY | not soluble |
| MDLWLLANDESCLRHQAFWHSWQGPLVERQQSNNITLTDVLEGVHAYLQGHLDDFEIQEAFVTKELPLKLAQLRERWERYVVLNAELAARGRGGFERNRRDD | soluble |
| MDLYEKIKLLASEKKMSIRQLEETLGFGNGVINRWRKNTPGSDKLKKVADYFNISVDYLLGRTDNPNSNNLEEDEITTFFRVNTEDLTESEKDQLREELKEYLEFMKSRLKNK | soluble |
| MDMLNTLRDTLSSVQAELSTGVEKLRMNVSANIVAQQKVSTESVNEILNTSAGNELLQNFQNLITEVEENGAEGGRLANLCSTRMGRCQQMCKEKADAVMEIDEFLRNSVEFDKKIREINAQISKLTRFCNQTEQAMTYLEALCEVAHTEGEVDLIRQQAKSAATIVQIECESPSVLTSALRSRPEDAVKAQQEEVMLEEFLSSKNMQLP | not soluble |
| MDNARIDLRSKYYVKPKADHPWLTRRTQSHQQVKPPKLPKKKPDPDKKD | not soluble |
| MDNCLAAAALNGVDRRSLQRSAKLALEVLERAKRRAVDWHALERPKGCMGVLAREAPHLEKQPAAGPQRVLPGEREERPPTLSASFRTMAEFMDYTSSQCGKYYSSVPEEGGATHVYRYHRGESKLHMCLDIGNGQRKDRKKTSLGPGGSYQISEHAPEASQPAENISKDLYIEVYPGTYSVTVGSNDLTKKTHVVAVDSGQSVDLVFPVLEHHHHHH | soluble |
| MDNKVILVGGFHEIIELCEDNDIEIAGIIDNYLTNDTYWGYPIIGTDDKAKVLFETYKNVPVLITPDVPHVRYKLYHYYKSIGFQVASLISRDASISRSAIIGEGTIIQRGANLSSNIKIGQMVKVNTNANIMHDCLIGNYVTVAPNAVLLGKVEIDDKAYIGANATLLPSVKIGENVTVGAGSVVTKSVRPNTVVKGSPLEHHHHHH | soluble |
| MDNTRIMAAREAGVKVEANVHNFNDRLSSKERIRFKHDGIEPQTWGEAIQLRIRKQETQKGVPEGWSKRFPNGSIYDVKVLRK | not soluble |
| MDPLRAQQLAAELEVEMMADMYNRMTSACHRKCVPPHYKEAELSKGESVCLDRCVSKYLDIHERMGKKLTELSMQDEELMKRVQQSSGPA | soluble |
| MDQTIHHQIQQALHFRTAVRVYKEEKISDEDLALILDAAWLSPSSIGLEGWRFVVLDNKPIKEEIKPFAWGAQYQLETASHFILLIAEKHARYDSPAIKNSLLRRGIKEGDGLNSRLKLYESFQKEDMDMADNPRALFDWTAKQTYIALGNMMMTAALLGIDTCPIEGFHYDKVNHILAKHNVIDLEKEGIASMLSLGYRLRDPKHAQVRKPKEEVISVVK | soluble |
| MDRFDAMQAFARVVDTGSFTKAAETLHMSRTSVTQLVQQLEARLRVRLLNRTTRKLNLTADGAAYYERVVRLLAELDDAETSLSSAALAPRGRLRIDVPSPLARLLLIPALPEFHARYPEIQIDLGVSDRLVDLIDENVDCVIRGGELRDQSLMARRVGDLQLGVYAAPAYLQRAGVPSHPRELEDSHQRIVGFLWARTGKALPYAMRRGEECLRVAGRHVLAVDDGNAYLAAGLAGLGILWLPHYMAREPLARGELLPLFEDWSLEPMPLYLAFPPNRHVSGKLRVFIEWVAELIARHAPPLHPPL | not soluble |
| MDRISQLSDDLLLQILSFIPGKDVVATSLLSKRWQSLWMLVSELEYDDSYHTGDYKSFSQFVYRSLLSNNAPVIKHLHLNLGPDCPAIDIGLWIGFALTRRLRQLKINIRTSSNDASFSLPSSLYTSDTLETLRLINFVLLDVPSSVCLPSLKVLHLKTVDYEDDASLPSLLFGCPNLEELFVERHDQDLEMDVTFVVPSLRRLSMIDKNYGQCDRYVIDVPSLKYLNITDDAVYDVRQIENMPELVEAHVDITQGVTHKFLRALTSVRQLSLCLSLSEKQHESGLCGIETPIGWKLPSSVPECLLFSLEAFEWIGYKGRRGDREVATYVLKNAACLRTAKFSPESTDVGEKYHMLKELASVPTASTSSKLLFD | soluble |
